# From the supplement of paper PMC10567573
# B1: NCF4 (parent)
# chain: FVKILKDFPEEDDPTNWLRCYYYE
# B2: DCAF4 (parent)
# chain: PGIDRPGMLCSFRIPGAWSCAWSL
# Variants of: B1
# Assay: protein stability index of a GFP-peptide fusion (GPS, HEK-293T) (PSI 1-6); higher = more stable
# Details: c terminus: a fixed tail appended
# 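Also: lentivirally expressed fusions sorted by FACS into six bins by GFP to DsRed ratio, PSI derived from sequencing read proportions per bin multiplied by bin number.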
row,Variant,protein stability index
1,FLKILKDFPEEDDPTNWLRCYYYE,1.76
2,FMKILKDFPEEDDPTNWLRCYYYE,1.96
3,FQKILKDFPEEDDPTNWLRCYYYE,3.03
4,FGKILKDFPEEDDPTNWLRCYYYE,2.24
5,FWKILKDFPEEDDPTNWLRCYYYE,3.35
6,FSKILKDFPEEDDPTNWLRCYYYE,1.62
7,FEKILKDFPEEDDPTNWLRCYYYE,3.02
8,FKKILKDFPEEDDPTNWLRCYYYE,2.16
9,FHKILKDFPEEDDPTNWLRCYYYE,1.57
10,FCKILKDFPEEDDPTNWLRCYYYE,1.95
11,FIKILKDFPEEDDPTNWLRCYYYE,1.46
12,FPKILKDFPEEDDPTNWLRCYYYE,2.82
13,FAKILKDFPEEDDPTNWLRCYYYE,1.88
14,FRKILKDFPEEDDPTNWLRCYYYE,2.38
15,FYKILKDFPEEDDPTNWLRCYYYE,2.08
16,FNKILKDFPEEDDPTNWLRCYYYE,2.11
17,FTKILKDFPEEDDPTNWLRCYYYE,2.4
18,FDKILKDFPEEDDPTNWLRCYYYE,2.05
19,WVKILKDFPEEDDPTNWLRCYYYE,3.29
20,LVKILKDFPEEDDPTNWLRCYYYE,2.17
21,AVKILKDFPEEDDPTNWLRCYYYE,1.99
22,RVKILKDFPEEDDPTNWLRCYYYE,2.25
23,PVKILKDFPEEDDPTNWLRCYYYE,2.05
24,CVKILKDFPEEDDPTNWLRCYYYE,1.46

row,Variant,protein stability index
1,HVKILKDFPEEDDPTNWLRCYYYE,2.7
2,SVKILKDFPEEDDPTNWLRCYYYE,2.55
3,NVKILKDFPEEDDPTNWLRCYYYE,2.96
4,KVKILKDFPEEDDPTNWLRCYYYE,2.68
5,TVKILKDFPEEDDPTNWLRCYYYE,2.6
6,MVKILKDFPEEDDPTNWLRCYYYE,2.11
7,VVKILKDFPEEDDPTNWLRCYYYE,2.21
8,QVKILKDFPEEDDPTNWLRCYYYE,2.56
9,IVKILKDFPEEDDPTNWLRCYYYE,2.09
10,FVTILKDFPEEDDPTNWLRCYYYE,2.48
11,FVYILKDFPEEDDPTNWLRCYYYE,1.01
12,FVEILKDFPEEDDPTNWLRCYYYE,2
13,FVDILKDFPEEDDPTNWLRCYYYE,2.11
14,FVAILKDFPEEDDPTNWLRCYYYE,2.19
15,FVQILKDFPEEDDPTNWLRCYYYE,2.05
16,FVPILKDFPEEDDPTNWLRCYYYE,2.45
17,FVNILKDFPEEDDPTNWLRCYYYE,2.31
18,FVCILKDFPEEDDPTNWLRCYYYE,1.26
19,FVHILKDFPEEDDPTNWLRCYYYE,1.43
20,FVSILKDFPEEDDPTNWLRCYYYE,2.32
21,FVRILKDFPEEDDPTNWLRCYYYE,1.17
22,FVKDLKDFPEEDDPTNWLRCYYYE,1.25
23,FVKALKDFPEEDDPTNWLRCYYYE,1.61
24,FVKELKDFPEEDDPTNWLRCYYYE,1.65

# Variants of: B2
# Assay: as above
# Details: c terminus: a fixed tail appended
row,Variant,protein stability index
1,PGIDRPGMLCSFRIPGAWSCAWSS,2.15
2,PGIDRPGMLCSFRIPGAWSCAWSH,2.96
3,PGIDRPGMLCSFRIPGAWSCAWST,3.74
4,PGIDRPGMLCSFRIPGAWSCAWSK,2.42
5,PGIDRPGMLCSFRIPGAWSCAWSI,2.42
6,PGIDRPGMLCSFRIPGAWSCAWSQ,1.31
7,PGIDRPGMLCSFRIPGAWSCAWSA,3.62
8,PGIDRPGMLCSFRIPGAWSCAWSW,3.59
9,PGIDRPGMLCSFRIPGAWSCAWSN,2.87
10,PGIDRPGMLCSFRIPGAWSCAWSE,1.38
11,PGIDRPGMLCSFRIPGAWSCAWSV,2.71
12,PGIDRPGMLCSFRIPGAWSCAWSR,1.47
13,PGIDRPGMLCSFRIPGAWSCAWSF,3.21
14,PGIDRPGMLCSFRIPGAWSCAWSY,1.96
15,PGIDRPGMLCSFRIPGAWSCAWSP,2.03
16,PGIDRPGMLCSFRIPGAWSCAWSD,2.85
17,PGIDRPGMLCSFRIPGADSCAWSL,1.76
18,PGIDRPGMLCSFRIPGAESCAWSL,1.68
19,PGIDRPGMLCSFRIPGARSCAWSL,3.25
20,PGIDRPGMLCSFRIPGAGSCAWSL,2.18
21,PGIDRPGMLCSFRIPGAHSCAWSL,2.73
22,PGIDRPGMLCSFRIPGAMSCAWSL,2.71
23,PGIDRPGMLCSFRIPGAPSCAWSL,2.33
24,PGIDRPGMLCSFRIPGAASCAWSL,3.12

row,Variant,protein stability index
1,PGIDRPGMLCSFRIPGAYSCAWSL,3.06
2,PGIDRPGMLCSFRIPGATSCAWSL,2.63
3,PGIDRPGMLCSFRIPGANSCAWSL,2.54
4,PGIDRPGMLCSFRIPGASSCAWSL,2.36
5,PGIDRPGMLCSFRIPGAKSCAWSL,2.9
6,PGIDRPGMLCSFRIPGAQSCAWSL,2.21
7,PGIDRPGMLCSFRIPGAVSCAWSL,3.98
8,PGIDRPGMLCSFRIPGACSCAWSL,2.32
9,PGIDRPGMLCSFRIPGALSCAWSL,2.87
10,PGIDRPGMLCSFRIPGAWSCFWSL,2.37
11,PGIDRPGMLCSFRIPGAWSCTWSL,2.69
12,PGIDRPGMLCSFRIPGAWSCLWSL,2.32
13,PGIDRPGMLCSFRIPGAWSCCWSL,2.48
14,PGIDRPGMLCSFRIPGAWSCNWSL,2.85
15,PGIDRPGMLCSFRIPGAWSCDWSL,3.1
16,PGIDRPGMLCSFRIPGAWSCWWSL,2.83
17,PGIDRPGMLCSFRIPGAWSCMWSL,2.96
18,PGIDRPGMLCSFRIPGAWSCKWSL,3.64
19,PGIDRPGMLCSFRIPGAWSCPWSL,2.54
20,PGIDRPGMLCSFRIPGAWSCSWSL,2.99
21,PGIDRPGMLCSFRIPGAWSCGWSL,3.7
22,PGIDRPGMLCSFRIPGAWSCYWSL,4.31
23,PGIDRPGMLCSFRIPGAWSCRWSL,2.22
24,PGIDRPGMLCSFRIPGAWSCVWSL,1.91

row,Variant,protein stability index
1,PGIDRPGMLCSFRIPVAWSCAWSL,2.81
2,PGIDRPGMLCSFRIPLAWSCAWSL,3.68
3,PGIDRPGMLCSFRIPPAWSCAWSL,3.49
4,PGIDRPGMLCSFRIPYAWSCAWSL,2.84
5,PGIDRPGMLCSFRIPNAWSCAWSL,2.91
6,PGIDRPGMLCSFRIPSAWSCAWSL,3.06
7,PGIDRPGMLCSFRIPWAWSCAWSL,1.49
8,PGIDRPGMLCSFRIPTAWSCAWSL,3.2
9,PGIDRPGMLCSFRIPQAWSCAWSL,2.3
10,PGIDRPGMLCSFRIPRAWSCAWSL,2.68
11,PGIDRPGMLCSFRIPGFWSCAWSL,2.16
12,PGIDRPGMLCSFRIPGRWSCAWSL,3
13,PGIDRPGMLCSFRIPGPWSCAWSL,1.61
14,PGIDRPGMLCSFRIPGLWSCAWSL,2.79
15,PGIDRPGMLCSFRIPGEWSCAWSL,3.28
16,PGIDRPGMLCSFRIPGSWSCAWSL,4.12
17,PGIDRPGMLCSFRIPGGWSCAWSL,3.29
18,PGIDRPGMLCSFRIPGYWSCAWSL,2.95
19,PGIDRPGMLCSFRIPGIWSCAWSL,2.79
20,PGIDRPGMLCSFRIPGNWSCAWSL,2.48
21,PGIDRPGMLCSFRIPGDWSCAWSL,3.01
22,PGIDRPGMLCSFRIPGTWSCAWSL,1.77
23,PGIDRPGMLCSFRIPGCWSCAWSL,2.26
24,PGIDRPGMLCSFRIPGMWSCAWSL,3.08

row,Variant,protein stability index
1,PGIDRPGMLCSFRIPGQWSCAWSL,2.13
2,PGIDRPGMLCSFRIPGAWSCACSL,1.62
3,PGIDRPGMLCSFRIPGAWSCASSL,1.33
4,PGIDRPGMLCSFRIPGAWSCATSL,1.95
5,PGIDRPGMLCSFRIPGAWSCADSL,1.5
6,PGIDRPGMLCSFRIPGAWSCARSL,2.27
7,PGIDRPGMLCSFRIPGAWSCAPSL,1.19
8,PGIDRPGMLCSFRIPGAWSCAKSL,1.84
9,PGIDRPGMLCSFRIPGAWSCANSL,1.6
10,PGIDRPGMLCSFRIPGAWSCALSL,2.58
11,PGIDRPGMLCSFRIPGAWSCAMSL,3.58
12,PGIDRPGMLCSFRIPGAWSCAGSL,1.95
13,PGIDRPGMLCSFRIPGAWSCAASL,2.54
14,PGIDRPGMLCSFRIPGAWSCAESL,2.01
15,PGIDRPGMLCSFRIPGAWSCAVSL,1.44
16,PGIDRPGMLCSFRIPGAWSCAISL,3.25
17,PGIDRPGMLCSFRIPGAWSCAHSL,1.74
18,PGIDRPGMLCSFRIPGAWSCAQSL,3.24
19,PGIDRPGMLCSFRIPGAWSCAFSL,2.7
20,PGIDRPGMLCSFRIPGAWSCAWGL,3.64
21,PGIDRPGMLCSFRIPGAWSCAWEL,3.03
22,PGIDRPGMLCSFRIPGAWSCAWWL,2.88
23,PGIDRPGMLCSFRIPGAWSCAWCL,1.89
24,PGIDRPGMLCSFRIPGAWSCAWVL,2.27

row,Variant,protein stability index
1,PGIDRPGMLCSFRIPGAWSCAWDL,2.39
2,PGIDRPGMLCSFRIPGAWSCAWAL,2.91
3,PGIDRPGMLCSFRIPGAWSCAWNL,2.36
4,PGIDRPGMLCSFRIPGAWSCAWTL,2.5
5,PGIDRPGMLCSFRIPGAWSCAWIL,1.75
6,PGIDRPGMLCSFRIPGAWSCAWFL,2
7,PGIDRPGMLCSFRIPGAWSCAWKL,2.47
8,PGIDRPGMLCSFRIPGAWSCAWYL,3.52
9,PGIDRPGMLCSFRIPGAWSCAWQL,3.24
10,PGIDRPGMLCSFRIPGAWSCAWLL,3.01
11,PGIDRPGMLCSFRIPGAWSCAWPL,2.55
12,PGIDRPGMLCSFRIPGAWSWAWSL,3.93
13,PGIDRPGMLCSFRIPGAWSQAWSL,1.56
14,PGIDRPGMLCSFRIPGAWSRAWSL,1.52
15,PGIDRPGMLCSFRIPGAWSEAWSL,1.7
16,PGIDRPGMLCSFRIPGAWSKAWSL,1.81
17,PGIDRPGMLCSFRIPGAWSDAWSL,2.11
18,PGIDRPGMLCSFRIPGAWSLAWSL,3.41
19,PGIDRPGMLCSFRIPGAWSSAWSL,3.33
20,PGIDRPGMLCSFRIPGAWSFAWSL,4.57
21,PGIDRPGMLCSFRIPGAWSNAWSL,2.15
22,PGIDRPGMLCSFRIPGAWSGAWSL,2.95
23,PGIDRPGMLCSFRIPGAWSIAWSL,2.77
24,PGIDRPGMLCSFRIPGAWSTAWSL,2.61

row,Variant,protein stability index
1,PGIDRPGMLCSFRIPGAWSPAWSL,3.17
2,PGIDRPGMLCSFRIPGAWSMAWSL,3.55
3,PGIDRPGMLCSFRIPGAWSVAWSL,2.58
4,PGIDRPGMLCSFRIPGAWSHAWSL,2.41
5,PGIDRPGMLCSFRIPGAWKCAWSL,4.35
6,PGIDRPGMLCSFRIPGAWVCAWSL,1.55
7,PGIDRPGMLCSFRIPGAWYCAWSL,3.36
8,PGIDRPGMLCSFRIPGAWHCAWSL,1.6
9,PGIDRPGMLCSFRIPGAWQCAWSL,2.74
10,PGIDRPGMLCSFRIPGAWPCAWSL,1.66
11,PGIDRPGMLCSFRIPGAWDCAWSL,2.11
12,PGIDRPGMLCSFRIPGAWICAWSL,2.23
13,PGIDRPGMLCSFRIPGAWWCAWSL,4.15
14,PGIDRPGMLCSFRIPGAWTCAWSL,2.96
15,PGIDRPGMLCSFRIPGAWRCAWSL,3.46
16,PGIDRPGMLCSFRIPGAWGCAWSL,2.78
17,PGIDRPGMLCSFRIPGAWACAWSL,3.16
18,PGIDRPGMLCSFRIPGAWLCAWSL,2.61
19,PGIDRPGMLCSFRIPGAWECAWSL,2.19
20,PGIDRPGMLCSFRIPGAWMCAWSL,2.51
